Measured values taken from US20250066499A1 (SUNSHINE GUOJIAN PHARMACEUTICAL SHANGHAI, published 2025).
Where a chain is given by its changes, count along the chain named.

How the values were obtained:
CD73-ND-P134A = biological target: T1, CD73-ND-P134A (human, UniProt P21589 27-317); test: ELISA, high plateau value (OD 450 nm)
T1 construct: Alanine mutant of CD73-ND
T1 sequence: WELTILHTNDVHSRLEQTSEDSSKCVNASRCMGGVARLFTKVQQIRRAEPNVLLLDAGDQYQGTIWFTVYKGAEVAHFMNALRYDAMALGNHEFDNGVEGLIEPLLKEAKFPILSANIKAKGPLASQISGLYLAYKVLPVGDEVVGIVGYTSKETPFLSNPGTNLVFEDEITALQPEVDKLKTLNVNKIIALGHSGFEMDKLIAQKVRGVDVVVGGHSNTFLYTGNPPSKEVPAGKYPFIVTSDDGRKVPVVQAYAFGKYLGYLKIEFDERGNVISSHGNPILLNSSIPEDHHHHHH
Protocol: (§1) The ELISA plates were coated with SA protein diluted to 1.5 μg/mL in coating buffer (50 mM carbonate coating buffer, pH 9.6) and incubated overnight at 4° C. The supernatant was discarded, and the plates were washed three times with PBST. Then, 5% skimmed milk powder prepared with PBS was added for blocking and the plates were incubated for 2 h at 37° C. After washing the plates once with PBST, CD73-biotin protein (prepared by biotinylating CD73-His protein according to the EZ-Link NHS-Biotin Reagent instructions) was diluted to 0.5 μg/mL and added at 100 μL/well for incubation at room temperature for 1 h. The plates were washed three times with PBST, and the prepared murine-derived monoclonal antibodies against human CD73 were serially diluted with 1% BSA buffer prepared with PBST and added to the ELISA plates at 100 μl/well. The plates were incubated at 37° C. for 1 h. After washing the plates three times with PBST, HRP-labeled goat anti-mouse IgG secondary antibody was added and the plates were incubated for 30 min at 37° C. After washing the plates three times with PBST, the residual droplets were patted dry on absorbent paper as much as possible. Then, 100 μl of TMB color developing solution was added to each well, and the plates were incubated in the dark at room temperature for 5 min for color development. Subsequently, 50 μl of 2M H₂SO₄ stop solution was added to each well to terminate the substrate reaction. The OD values were read at 450 nm using a multimode microplate reader to analyze the binding ability of the tested antibodies to the target antigen human CD73-His.
(§2) Referring to the experimental method in Example 3, the affinity of 48A11-HuV33 for various mutant proteins of CD73-ND was determined. The SA protein was diluted to 1 μg/mL for coating the ELISA plates, and the biotinylated CD73 protein (CD73-biotin) was used at a concentration of 0.1 μg/mL.

CD73-ND-his [1] = biological target: T2, CD73-ND-his (human, UniProt P21589 27-317); test: ELISA; decline multiple of Top against CD73-ND
T2 construct: Biotinylated and captured on streptavidin in the ELISA
T2 sequence: T1 sequence with A134P
Protocol: as §1, §2

CD73-ND-V186A = biological target: T3, CD73-ND-V186A (human, UniProt P21589 27-317); test: ELISA; decline multiple of Top against CD73-ND
T3 construct: Alanine mutant of CD73-ND
T3 sequence: T1 sequence with A134P, V186A
Protocol: as §1, §2

CD73-ND-N187A = biological target: T4, CD73-ND-N187A (human, UniProt P21589 27-317); test: ELISA; decline multiple of Top against CD73-ND
T4 construct: Alanine mutant of CD73-ND
T4 sequence: T1 sequence with A134P, N187A
Protocol: as §1, §2

CD73-ND-his [2] = biological target: T2, CD73-ND-his; test: ELISA, biotinylated antigen on streptavidin plate
Protocol: as §1, §2

CD73-ND-V144A = biological target: T5, CD73-ND-V144A (human, UniProt P21589 27-317); test: ELISA, biotinylated antigen on streptavidin plate
T5 construct: Alanine mutant of CD73-ND
T5 sequence: T1 sequence with A134P, V144A
Protocol: as §1, §2

CD73-ND-N185A = biological target: T6, CD73-ND-N185A (human, UniProt P21589 27-317); test: ELISA, biotinylated antigen on streptavidin plate
T6 construct: Alanine mutant of CD73-ND
T6 sequence: T1 sequence with A134P, N185A
Protocol: as §1, §2

B1: 48A11-HuV33 (antibody, human IgG4, V domains shown)
VH: QVQLVQSGAEVKKPGASVKVSCKASGYTFTSYWMHWVRQAPGQGLEWIGEINPSIGRTNYNEKFKSRVTLTRDTSTSTAYMELSSLRSEDTAVYYCARRVYGTMDYWGQGTLVTVSS
VL: DIQMTQSPSSLSASVGDRVTITCKASQDINSYLSWFQQKPGKSPKLLIYRANIWVDGVPSRFSGSGSGQDYTFTISSLQPEDIATYYCLQYDELYTFGQGTKVEIK
notes: Humanized
- Top (CD73-ND-P134A): 1.97
- Ratio(Top) (CD73-ND-his [1]): 1 fold
- Ratio(Top) (CD73-ND-V186A): 1.2 fold
- Ratio(Top) (CD73-ND-N187A): 1.1 fold
- EC50 (CD73-ND-his [2]): 0.117 nM
- EC50 (CD73-ND-V144A): 0.29 nM
- EC50 (CD73-ND-N185A): 0.188 nM
